Test results taken from article doi:10.1101/2022.05.27.493400.
“And” between values parts separate entries of the source, which are not always exact repeats. Identical values can stand only once.

Tests used:
[1] = molecular target: pineapple-derived jacalin-related lectin AcmJRL (pineapple (Ananas comosus)); assay: dynamic light scattering
[2] = molecular target: SARS-CoV-2 spike receptor-binding domain (RBD) (SARS-CoV-2) (UniProt P0DTC2); assay: SPR
[3] = molecular target: human angiotensin-converting-enzyme-2 (ACE2) receptor, recombinant (human) (UniProt Q9BYF1); assay: SPR

## pineapple-derived jacalin-related lectin AcmJRL (natural protein)
[1]
  stoichiometry N: 2
[2]
  Kd: 12.9 µM and 35 µM
  kon: 1490 M⁻¹ s⁻¹
[3]
  Kd: 22.1 µM
  kon: 590 M⁻¹ s⁻¹
